Test results as given in IntAct's records for PubMed 29892012.

B1: Zinc finger protein 786 (Homo sapiens), Q8N393 (parent)
chain: MAEPPRLPLTFEDVAIYFSEQEWQDLEAWQKELYKHVMRSNYETLVSLDDGLPKPELISWIEHGGEPFRKWRESQKSGNIICSSVDMHFDPGFEEQLFWGSQQAMNSGKTKSHFQLDPESQCSFGSFVSFRPDQGITLGSPQRHDARAPPPLACGPSESTLKEGIPGPRNLDLPGLWDVPAWESTQHPWPVCGESCWENNHLVMHQRGHSKDRTRRAWEKFNKRAETQMPWSSPRVQRHFRCGVCGKSFRRKLCLLRHLAAHTGRGPFRNADGEMCFRHELTHPSHRLPQQGEKPAQCTPCGKRSLPVDSTQARRCQHSREGPASWREGRGASSSVHSGQKPGSRLPQEGNSHQEGDTEALQHGAEGPCSCSECGERSPMSARLASPCRAHTGEKPFQCAHCTKRFRLRRLLQVHQHAHGGERPFSCRKCGKGFAKQCKLTEHIRVHSGEKPFRCAKCGRNFRQRGQLLRHQRLHTDEKPFQCPECGLSFRLESMLRAHRLRHGGERPFSCSECGRGFTHQCKLREHLRVHSGERPFQCLKCDKRFRLKGILKAHQHTHSKERPFSCGECGKGFTRQSKLTEHLRVHSGERPFQCPECNRSFRLKGQLLSHQRLHTGERPFQCPECDKRYRVKADMKAHQLLHSGEMPFSCECGKGFVKHSKLIEHIRTHTGEKPFQCPKCDKSFRLKAQLLSHQGLHTGERPFHCPECDKNFRERGHMLRHQRIHRPERPFACGDCGKGFIYKSKLAEHIRVHTKSCPAPNELDIKKRLSQLFAMIEADWS
B2: Ribosome-recycling factor, mitochondrial (Homo sapiens), Q96E11 (parent)
chain: MALGLKCFRMVHPTFRNYLAASIRPVSEVTLKTVHERQHGHRQYMAYSAVPVRHFATKKAKAKGKGQSQTRVNINAALVEDIINLEEVNEEMKSVIEALKDNFNKTLNIRTSPGSLDKIAVVTADGKLALNQISQISMKSPQLILVNMASFPECTAAAIKAIRESGMNLNPEVEGTLIRVPIPQVTREHREMLVKLAKQNTNKAKDSLRKVRTNSMNKLKKSKDTVSEDTIRLIEKQISQMADDTVAELDRHLAVKTKELLG
partner: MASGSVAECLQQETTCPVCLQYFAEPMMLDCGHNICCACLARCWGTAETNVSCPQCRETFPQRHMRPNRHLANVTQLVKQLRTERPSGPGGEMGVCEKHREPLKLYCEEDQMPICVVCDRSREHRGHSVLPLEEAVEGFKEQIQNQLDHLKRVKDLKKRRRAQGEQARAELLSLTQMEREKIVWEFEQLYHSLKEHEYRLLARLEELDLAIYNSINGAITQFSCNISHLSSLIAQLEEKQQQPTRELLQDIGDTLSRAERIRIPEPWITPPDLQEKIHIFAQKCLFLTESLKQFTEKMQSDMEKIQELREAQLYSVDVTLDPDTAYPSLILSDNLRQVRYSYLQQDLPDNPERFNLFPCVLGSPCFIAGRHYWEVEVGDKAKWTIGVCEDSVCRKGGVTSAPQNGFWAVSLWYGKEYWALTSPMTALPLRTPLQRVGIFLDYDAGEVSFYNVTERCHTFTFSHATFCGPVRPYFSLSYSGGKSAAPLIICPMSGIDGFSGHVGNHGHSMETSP
B3: Genetic suppressor element 1 (Homo sapiens), Q14687 (parent)
chain: MKGMSHEPKSPSLGMLSTATRTTATVNPLTPSPLNGALVPSGSPATSSALSAQAAPSSSFAAALRKLAKQAEEPRGSSLSSESSPVSSPATNHSSPASTPKRVPMGPIIVPPGGHSVPSTPPVVTIAPTKTVNGVWRSESRQDAGSRSSSGGRERLIVEPPLPQEKAGGPAIPSHLLSTPYPFGLSPSSVVQDSRFPPLNLQRPVHHVVPPSTVTEDYLRSFRPYHTTDDLRMSSLPPLGLDPATAAAYYHPSYLAPHPFPHPAFRMDDSYCLSALRSPFYPIPTPGSLPPLHPSAMHLHLSGVRYPPELSHSSLAALHSERMSGLSAERLQMDEELRREREREREREREREADREREKEREREREKEREQEKEREREKERERELERQREQRAREKELLAAKALEPSFLPVAELHGLRGHATEERGKPSEQLTPTRAEKLKDAGLQAPKPVQHPLHPVPTPHHTVPSLISNHGIFSLPSSSAATALLIQRTNEEEKWLARQRRLRQEKEDRQSQVSEFRQQVLEQHLDMGRPPVPAEAEHRPESTTRPGPNRHEPGGRDPPQHFGGPPPLISPKPQLHAAPTALWNPVSLMDNTLETRRAESHSLHSHPAAFEPSRQAAVPLVKVERVFCPEKAEEGPRKREPAPLDKYQPPPPPPREGGSLEHQPFLPGPGPFLAELEKSTQTILGQQRASLPQAATFGELSGPLKPGSPYRPPVPRAPDPAYIYDEFLQQRRRLVSKLDLEERRRREAQEKGYYYDLDDSYDESDEEEVRAHLRCVAEQPPLKLDTSSEKLEFLQLFGLTTQQQKEELVAQKRRKRRRMLRERSPSPPTIQSKRQTPSPRLALSTRYSPDEMNNSPNFEEKKKFLTIFNLTHISAEKRKDKERLVEMLRAMKQKALSAAVADSLTNSPRDSPAVSLSEPATQQASLDVEKPVGVAASLSDIPKAAEPGKLEQVRPQELSRVQELAPASGEKARLSEAPGGKKSLSMLHYIRGAAPKDIPVPLSHSTNGKSKPWEPFVAEEFAHQFHESVLQSTQKALQKHKGSVAVLSAEQNHKVDTSVHYNIPELQSSSRAPPPQHNGQQEPPTARKGPPTQELDRDSEEEEEEDDEDGEDEEEVPKRKWQGIEAVFEAYQEHIEEQNLERQVLQTQCRRLEARHYSLSLTAEQLSHSVAELRSQKQKMVSERERLQAELDHLRKCLALPAMHWPRGYLKGYPR
partner: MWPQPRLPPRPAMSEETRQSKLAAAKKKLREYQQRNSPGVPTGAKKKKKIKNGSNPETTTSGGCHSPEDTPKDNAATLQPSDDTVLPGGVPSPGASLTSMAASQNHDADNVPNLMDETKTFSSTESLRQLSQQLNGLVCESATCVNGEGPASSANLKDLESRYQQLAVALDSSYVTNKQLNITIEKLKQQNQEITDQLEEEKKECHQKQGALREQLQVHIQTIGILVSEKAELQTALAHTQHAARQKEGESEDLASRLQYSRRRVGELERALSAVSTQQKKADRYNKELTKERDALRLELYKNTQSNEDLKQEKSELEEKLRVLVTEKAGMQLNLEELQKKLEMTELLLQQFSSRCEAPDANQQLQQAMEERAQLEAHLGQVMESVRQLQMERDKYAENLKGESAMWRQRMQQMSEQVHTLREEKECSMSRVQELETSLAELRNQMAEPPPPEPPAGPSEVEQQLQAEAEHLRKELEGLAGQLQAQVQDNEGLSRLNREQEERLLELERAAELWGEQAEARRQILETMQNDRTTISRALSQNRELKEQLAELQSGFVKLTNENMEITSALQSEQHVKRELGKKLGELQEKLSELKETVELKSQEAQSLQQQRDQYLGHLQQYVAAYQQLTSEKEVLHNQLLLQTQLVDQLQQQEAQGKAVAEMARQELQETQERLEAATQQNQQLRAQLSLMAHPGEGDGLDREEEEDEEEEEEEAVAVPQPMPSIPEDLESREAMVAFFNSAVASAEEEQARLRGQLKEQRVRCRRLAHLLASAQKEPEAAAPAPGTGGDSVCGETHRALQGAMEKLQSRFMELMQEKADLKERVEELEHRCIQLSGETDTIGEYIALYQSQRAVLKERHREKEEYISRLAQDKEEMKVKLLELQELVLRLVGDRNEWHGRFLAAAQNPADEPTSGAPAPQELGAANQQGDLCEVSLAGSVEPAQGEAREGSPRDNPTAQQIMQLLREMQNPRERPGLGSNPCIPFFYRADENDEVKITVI

Variants of: B1
Conditions: with kr103_human KRTAP10-3, P60369
Sequence of kr103_human KRTAP10-3, P60369 (P60369 whole entry): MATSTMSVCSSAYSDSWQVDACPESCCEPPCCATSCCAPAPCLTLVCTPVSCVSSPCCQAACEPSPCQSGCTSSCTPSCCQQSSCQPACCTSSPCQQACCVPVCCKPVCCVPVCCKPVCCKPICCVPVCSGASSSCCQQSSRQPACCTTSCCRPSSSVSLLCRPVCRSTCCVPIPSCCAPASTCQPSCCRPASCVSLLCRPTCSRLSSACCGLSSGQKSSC

effect of a mutation on the interaction | Variant
with no effect | S112R

Variants of: B1
Conditions: with kr103_human KRTAP10-3, P60369
Remark: another data set of the same source

effect of a mutation on the interaction | Variant
with no effect | V37A

Variants of: B2
Conditions: with tri27_human TRIM27, P14373

effect of a mutation on the interaction | Variant
disrupting interaction strength | G175E

Variants of: B3
Conditions: with goga2_human GOLGA2, Q08379

effect of a mutation on the interaction | Variant
with no effect | E368K

Variants of: B3
Conditions: with goga2_human GOLGA2, Q08379
Remark: another data set of the same source

effect of a mutation on the interaction | Variant
with no effect | R503Q
